Assay results from patent publication US20230220111A1 (BEIJING TUO JIE BIOPHARMACEUTICAL, published 2023).
Residue numbers refer to the chain shown, from its start.

B1: antibody 1267 (Kg3g) (antibody, human IgG1, kappa, V domains shown)
VH: QVQLVQSGAEVKKPGASVKVSCKVSGYTLTSILMHWVRQAPGKGLEWMGGFDPQDGETVYAQKFQGRVTMTEDTSTDTAYMELSSLRSEDTAVYYCATDPHRTWWRYFDWLYPRGMDVWGQGTTVTVSS
VL: EIVLTQSPGTLSLSPGERATLSCRASQTVGKNYLAWYQQKPGQAPRLLIYEASVRALGIPDRFSGSGSGTDFTLTISRLEPEDFAVYYCQQFRSYPYTFGQGTKVEIKR
notes: Heavy chain is VH + human CH1 + IgG1 Fc
B2: antibody 3807 (antibody, V domains shown)
VH: EVQLQQSGAELVRPGTSVKLSCIASGFNIKDDYMHWVKQRPEQGLEWIGWIDPENGDTEYASKFQGKATITADTSANTAYLQFSSLTSEDTAVYYCLYGNFYYFDYWGQGTTLTVSS
VL: QIVLTQSPAIMSASPGEKVTMTCSASSSINYMHWYQQKPGTSPKRWIYDTSKLASGVPARFSGSGSGTSYSLTISSMEAEDAATYYCHQRSFSPLTFGAGTKLELK
notes: Murine variable regions; also called murine antibody 3807; hybridoma clone 3807
B3: antibody 3871 (antibody, V domains shown)
VH: QVQLVQSGAEVKKPGSSVKVSCKASGFNIKDDYMHWVRQAPGQGLEWMGWIDPENGDTEYASKFQGRVTITADESTSTAYMELSSLRSEDTAVYYCLYGNFYYFDYWGQGTTVTVSS
VL: EIVLTQSPATLSLSPGERATLSCSASSSINYMHWYQQKPGQAPKRWIYDTSKLASGVPARFSGSGSGTDFTLTISSLEPEDFAVYYCHQRSFSPLTFGQGTKLEIK
notes: Humanized from 3807: VH is 3807-VH1 and VL is 3807-VL3
B4: antibody 3875 (antibody, V domains shown)
VH: B3 VH with E74T, T76A, S77N
VL: B3 VL
notes: Humanized from 3807: VH is 3807-VH5 and VL is 3807-VL3
B5: antibody 3882 (antibody, human IgG4 S228P, kappa, V domains shown)
VH: B3 VH with F27G, N28T, I29F, K30S
VL: EIVLTQSPATLSLSPGERATLSCSASSSINYMHWYQQKPGQAPKRWIYDTSKLASGVPARFSGSGSGTDFTLTISSLEPEDFAVYYCHQRSFSPLTFGQGTKLEIKR
B6: BAY1213790 (antibody, human IgG1, kappa, V domains shown)
VH: EVQLLESGGGLVQPGGSLRLSCAASGFTFSQYGMDWVRQAPGKGLEWVSGIGPSGGSTVYADSVKGRFTISRDNSKNTLYLQMNSLRAEDTAVYYCTRGGPYYYYGMDVWGQGTTVTVSS
VL: DIQMTQSPSSLSASVGDRVTITCQASQDISNYLNWYQQKPGKAPKLLIYDASNLETGVPSRFSGSGSGTDFTFTISSLQPEDIATYYCQQADSFPVTFGGGTKVEIKR
B7: antibody 0012 (antibody, V domains shown)
VH: B1 VH with V5Q, S31E, I32L, L33S, Q54E, V59I
VL: EIVMTQSPGTLSLSPGERATLSCRASQTVGKNYLAWYQQKPGQAPRLLIYGASNRATGIPDRFSGSGSGTDFTLTISRLEPEDFGTYYCQQFRSYPYTFGQGTKVEIK
B8: antibody 1209 (0012-K3) (antibody, human IgG1, kappa, V domains shown)
VH: B1 VH with V5Q
VL: B1 VL with L4M, A85G, V86T

Target: T1, Human FXIa protein (activated coagulation factor XI) (human, UniProt P03951 19-625)
T1 construct: Bought from Enzyme Research Laboratories (HFXIa 1111a); also called factor XIa; HFXIa 1111a
Experiment: SPR (Biacore T200), antibody captured on Protein A chip, FXIa as analyte, 1:1 Langmuir fit
Text: (§1) A certain amount of antibodies to be tested was affinity-captured using a Protein A biosensor chip (Cat. #29127556, GE), then FXI/FXIa at a series of concentration gradients flowed through the surface of the chip. The reaction signals were detected in real time using a Biacore instrument (Biacore T200, GE) to obtain association and dissociation curves. After dissociation was completed for each cycle, the biochip was washed and regenerated with a regeneration solution prepared in a human antibody capture kit or a glycine-hydrochloric acid regeneration solution (pH 1.5, Cat. #BR-1003-54, GE). The buffer used in the experiment was HBS-EP+10× buffer (Cat. #BR-1006-69, GE) diluted to 1× (pH 7.4) with double distilled water.
(§2) The data obtained from the experiment were fitted using BIAevaluation version 4.1, GE software using a (1:1) Langmuir model to obtain affinity values. The test results of part of antibodies are shown in FIG. 1A, FIG. 1B and Table 6 below.

Going from B1 to B2, the Kd rises from 0.0222 nM to 0.148 nM (6.7-fold).

First: B3
Second: B4
The Kd of the first is 2.6-fold higher: 0.57 nM for the first, 0.22 nM for the second.

B5 showed a Kd of 0.364 nM.

Going from B1 to B2, the koff rises from 1.79e-05 s⁻¹ to 0.000235 s⁻¹ (13-fold).

Going from B3 to B4, the koff falls from 0.000708 s⁻¹ to 0.000336 s⁻¹ (2.1-fold).

B5 was tested, and the koff was 0.000387 s⁻¹.

Compared with B1, B2 is 1.8-fold higher in kon: 873000 M⁻¹ s⁻¹ for the first, 1.59e+06 M⁻¹ s⁻¹ for the second.

B3 and B4 are within 1.5-fold of each other in kon: 1.24e+06 M⁻¹ s⁻¹ for the first, 1.53e+06 M⁻¹ s⁻¹ for the second.

In the case of B5, the kon is reported as 1.06e+06 M⁻¹ s⁻¹.

Target: T2, Human FXI protein (coagulation factor XI) (human, UniProt P03951 19-625)
Experiment: cell-based or functional assay

Going from B6 to B7, the “aPTT1.5 (concentration prolonging aPTT by 50% relative to PBS), human blood” value rises from 2.15 µg/mL to 14.6 µg/mL (6.8-fold).

Compared with B8, B2 is 3.5-fold lower in “aPTT1.5 (concentration prolonging aPTT by 50% relative to PBS), human blood” value: 4.68 µg/mL for the first, 1.33 µg/mL for the second.

B3 and B4 are within 1.5-fold of each other in “aPTT1.5 (concentration prolonging aPTT by 50% relative to PBS), human blood” value: 0.88 µg/mL for the first, 0.87 µg/mL for the second.

In the case of B5, the “aPTT1.5 (concentration prolonging aPTT by 50% relative to PBS), human blood” value is reported as 0.63 µg/mL.

Target: monkey FXI (in monkey plasma) (monkey)
Experiment: cell-based or functional assay

First: B6
Second: B7
The “aPTT1.5 (concentration prolonging aPTT by 50% relative to PBS), monkey blood” value of the first is lower: 2.73 µg/mL for the first, over 8.33 µg/mL for the second.

Compared with B8, B2 is 4.1-fold lower in “aPTT1.5 (concentration prolonging aPTT by 50% relative to PBS), monkey blood” value: 4.08 µg/mL for the first, 1 µg/mL for the second.

B3 and B5 are within 1.5-fold of each other in “aPTT1.5 (concentration prolonging aPTT by 50% relative to PBS), monkey blood” value: 1.12 µg/mL for the first, 1.14 µg/mL for the second.

Target: T2, Human FXI protein (coagulation factor …)
Experiment: SPR (Biacore T200), antibody captured on Protein A chip, FXI as analyte, 1:1 Langmuir fit
Text: as §1, §2

Going from B3 to B4, the Kd rises from 0.02 nM to 0.0378 nM (1.9-fold).

With B5 the Kd was 0.0296 nM.

B3 and B4 are within 1.5-fold of each other in koff: 2.66e-05 s⁻¹ for the first, 3.02e-05 s⁻¹ for the second.

In the case of B5, the koff is reported as 5.85e-05 s⁻¹.

Compared with B3, B4 is 1.7-fold lower in kon: 1.32e+06 M⁻¹ s⁻¹ for the first, 799000 M⁻¹ s⁻¹ for the second.

B5 gave a kon of 1.97e+06 M⁻¹ s⁻¹.
